Experimental data: PMC11672684 (Cell Reports, 2024)

B1: 43_S0008 (antibody, V domains shown)
VH: QVQLVQSGAEVKKPGSSVKVSCKASGGTFRTFGISWVRQAPGQGLEWMGWIIPIIGTPNYAQKFQGRVIITADESSNTAYMELNSLKSEDTAVYYCAKEGRALLRYFDWLPLDAFDIWGQGTMVTVSS
VL: DIVLTQTPLSLPVSLGDQASISCRSSQSLVHSDGNTYLHWYLQKPGQSPKLLIYKVSNRFSGVPDRFSGSGSGTDFTLKISRVEAEDLGVYFCSQSTHVPPLTFGAGTKLELK
notes: also called mAb 43_S0008; IGHV1-69 + IGHD3-9 mAb 43_S0008; source: Expi293 cells, purified (protein A)
B2: Fab 43_S0008 (Fab, V domains shown)
VH: QVQLVQSGAEVKKPGSSVKVSCKASGGTFRTFGISWVRQAPGQGLEWMGWIIPIIGTPNYAQKFQGRVIITADESSNTAYMELNSLKSEDTAVYYCAKEGRALLRYFDWLPLDAFDIWGQGTMVTVSS
VL: DIVLTQTPLSLPVSLGDQASISCRSSQSLVHSDGNTYLHWYLQKPGQSPKLLIYKVSNRFSGVPDRFSGSGSGTDFTLKISRVEAEDLGVYFCSQSTHVPPLTFGAGTKLELK
notes: also called 43_S0008 Fab

Key:
[1] = biological target: T1, H1 A/New Caledonia/20/1999 HA (influenza A virus A/New …); assay: ELISA + BLI; settings: both partners purified
[2] = biological target: T1, H1 A/New Caledonia/20/1999 HA; assay: cryo-EM structure; settings: both partners purified

Binder	binding result [1]	binding result [2]
B1	binds	–
B2	–	binds
